Source: the supplement of paper PMC7877785
± gives the uncertainty stated by the source.

Assay: self-splicing fitness, log relative to wild type (ln ratio); higher = more splicing; Tetrahymena group I intron in knt gene, E. coli kanamycin selection, DiMSum; sequences stand for … in CUCUCU…GGAGGGAAAAGUUAUCAGGCAUGCACCUGGUAGCUAGUCUUUAAACCAAUAGAUUGCAUCGGUUUAAAAGGCAAGACCGUCAAAUUGCGGGAAAGGGGUCAACAGCCGUUCAGUACCAAGUCUCAGGGGAAACUUUGAGAUGGCCUUGCAAAGGGUAUGGUAAUAAGCUGACGGACAUGGUCCUAACCACGCAGCCAAGUCCUAAGUCAACAGAUCUUCUGUUGAUAUGGAUGCAGUUCACAGACUAAAUGUCGGUCGGGGAAGAUGUAUUCUUCUCAUAAGAUAUAGUCGGACCUCUCCUUAAUGGGAGCUAGCGGAUGAAGUGAUGCAACACUGGAGCCGCUGGGAACUAAUUUGUAUGCGAAAGUAUAUUGAUUAGUUUUGGAGUACUCGUGGUCG
In short: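 Colonies from six replicate transformations of E. coli BL21(DE3) were pooled and amplicon-sequenced on an Illumina HiSeq 2500. The library placed an intron with all eight P1ex-region nucleotides randomised inside the knt kanamycin-resistance gene on pET-22b(+), and cells grew overnight at 37°C or 30°C on LB agar with or without 25 μg/mL kanamycin (plus 100 μg/mL carbenicillin, 50 μM IPTG, 0.2% rhamnose). Fitness is the DiMSum error-weighted combination of wild-type-normalised replicate fold changes, kanamycin versus none.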

For UCCCAGCAAUAUUACGGUUC, which “self-splicing fitness (ln)” value (30 °C) is on record?
Its value is -2.43 ± 0.11.

What about the “self-splicing fitness (ln)” value (37 °C) of the same sequence?
Its value is -1.8 ± 0.14.

With UCCCAGCAAUAUUACGGUUG as the sequence, how does the “self-splicing fitness (ln)” value (30 °C) read?
The value was -2.97 ± 0.17.

And the “self-splicing fitness (ln)” value (37 °C)?
The value was -1.79 ± 0.15.

For UCCCAGCAAUAUUACGUACA, which “self-splicing fitness (ln)” value (30 °C) is on record?
The value was -1.92 ± 0.14.

What about the “self-splicing fitness (ln)” value (37 °C) of the same sequence?
Its value is -0.819 ± 0.1.

For UCCCAGCAAUAUUACGUCUU, which “self-splicing fitness (ln)” value (30 °C) is on record?
Its value is -2.99 ± 0.14.

What about the “self-splicing fitness (ln)” value (37 °C) of the same sequence?
Its value is -2.76 ± 0.2.

Which results are given for UCCCAGCAAUAUUACGUGCA?
self-splicing fitness (ln) (30 °C): -0.634 ± 0.06; self-splicing fitness (ln) (37 °C): -0.597 ± 0.078

What does the source list for UCCGAGCAAUAUUACGAAUG?
self-splicing fitness (ln) (30 °C): -2.81 ± 0.17; self-splicing fitness (ln) (37 °C): -2.94 ± 0.21

Which “self-splicing fitness (ln)” value (30 °C) does the source give for UCCGAGCAAUAUUACGACUC here?
Its value is -3.61 ± 0.21.

And the “self-splicing fitness (ln)” value (37 °C)?
Its value is -2.87 ± 0.34.

With UCCGAGCAAUAUUACGAGUC as the sequence, how does the “self-splicing fitness (ln)” value (37 °C) read?
The value was -2.16 ± 0.22.

For UCCGAGCAAUAUUACGAUAA, which “self-splicing fitness (ln)” value (30 °C) is on record?
The value was -2 ± 0.22.

And the “self-splicing fitness (ln)” value (37 °C)?
The value was -2.41 ± 0.32.

Which “self-splicing fitness (ln)” value (30 °C) does the source give for UCCGAGCAAUAUUACGAUAG here?
The value was -3.72 ± 0.24.

And the “self-splicing fitness (ln)” value (37 °C)?
Its value is -2.22 ± 0.2.

Which “self-splicing fitness (ln)” value (37 °C) does the source give for UCCGAGCAAUAUUACGAUCA here?
Its value is -1.26 ± 0.25.

What does the source list for UCCGAGCAAUAUUACGAUUU?
self-splicing fitness (ln) (30 °C): -3.56 ± 0.25; self-splicing fitness (ln) (37 °C): -2.49 ± 0.44

For UCCGAGCAAUAUUACGCCAA, which “self-splicing fitness (ln)” value (37 °C) is on record?
Its value is -2.4 ± 0.49.

With UCCGAGCAAUAUUACGCGUA as the sequence, how does the “self-splicing fitness (ln)” value (30 °C) read?
Its value is -1.14 ± 0.098.

And the “self-splicing fitness (ln)” value (37 °C)?
The value was -0.936 ± 0.11.

Which “self-splicing fitness (ln)” value (30 °C) does the source give for UCCGAGCAAUAUUACGCUAG here?
The value was -3.12 ± 0.31.

What about the “self-splicing fitness (ln)” value (37 °C) of the same sequence?
Its value is -2.75 ± 0.34.

For UCCGAGCAAUAUUACGCUUU, which “self-splicing fitness (ln)” value (30 °C) is on record?
The value was -2.64 ± 0.26.

What about the “self-splicing fitness (ln)” value (37 °C) of the same sequence?
The value was -3.01 ± 0.47.

Which results are given for UCCGAGCAAUAUUACGGACG?
self-splicing fitness (ln) (30 °C): -3.59 ± 0.24; self-splicing fitness (ln) (37 °C): -2.37 ± 0.25

What does the source list for UCCGAGCAAUAUUACGGAGG?
self-splicing fitness (ln) (30 °C): -2.66 ± 0.16; self-splicing fitness (ln) (37 °C): -2.65 ± 0.24

Which “self-splicing fitness (ln)” value (30 °C) does the source give for UCCGAGCAAUAUUACGGCAU here?
Its value is -2.13 ± 0.13.

And the “self-splicing fitness (ln)” value (37 °C)?
The value was -1.62 ± 0.097.

With UCCGAGCAAUAUUACGGGGU as the sequence, how does the “self-splicing fitness (ln)” value (30 °C) read?
The value was -2.7 ± 0.2.

What about the “self-splicing fitness (ln)” value (37 °C) of the same sequence?
The value was -2.45 ± 0.28.

With UCCGAGCAAUAUUACGGUGU as the sequence, how does the “self-splicing fitness (ln)” value (30 °C) read?
Its value is -1.74 ± 0.1.

What about the “self-splicing fitness (ln)” value (37 °C) of the same sequence?
Its value is -2.28 ± 0.17.

What does the source list for UCCGAGCAAUAUUACGUACG?
self-splicing fitness (ln) (30 °C): -3.62 ± 0.47; self-splicing fitness (ln) (37 °C): -2.34 ± 0.45

Which “self-splicing fitness (ln)” value (30 °C) does the source give for UCCGAGCAAUAUUACGUCAG here?
The value was -3.62 ± 0.24.

What about the “self-splicing fitness (ln)” value (37 °C) of the same sequence?
Its value is -1.07 ± 0.17.

Which results are given for UCCGAGCAAUAUUACGUGGG?
self-splicing fitness (ln) (30 °C): -2.8 ± 0.17; self-splicing fitness (ln) (37 °C): -2.56 ± 0.26

With UCCGAGCAAUAUUACGUGGU as the sequence, how does the “self-splicing fitness (ln)” value (30 °C) read?
The value was -2.83 ± 0.29.

What about the “self-splicing fitness (ln)” value (37 °C) of the same sequence?
The value was -2.29 ± 0.21.

Which “self-splicing fitness (ln)” value (30 °C) does the source give for UCCGAGCAAUAUUACGUUCA here?
Its value is -2.55 ± 0.2.

What about the “self-splicing fitness (ln)” value (37 °C) of the same sequence?
Its value is -3.16 ± 0.4.

For UCCUAGCAAUAUUACGAACG, which “self-splicing fitness (ln)” value (30 °C) is on record?
The value was -1.85 ± 0.2.

What about the “self-splicing fitness (ln)” value (37 °C) of the same sequence?
Its value is -1.78 ± 0.3.

For UCCUAGCAAUAUUACGACGA, which “self-splicing fitness (ln)” value (30 °C) is on record?
The value was 0.168 ± 0.12.

What about the “self-splicing fitness (ln)” value (37 °C) of the same sequence?
Its value is 0.868 ± 0.17.

Which “self-splicing fitness (ln)” value (30 °C) does the source give for UCCUAGCAAUAUUACGAGGG here?
The value was -2.97 ± 0.25.

What about the “self-splicing fitness (ln)” value (37 °C) of the same sequence?
The value was -2.7 ± 0.45.

With UCCUAGCAAUAUUACGAGUA as the sequence, how does the “self-splicing fitness (ln)” value (30 °C) read?
Its value is -1.12 ± 0.14.

And the “self-splicing fitness (ln)” value (37 °C)?
Its value is -0.911 ± 0.13.

With UCCUAGCAAUAUUACGCACU as the sequence, how does the “self-splicing fitness (ln)” value (30 °C) read?
Its value is -1.17 ± 0.12.

And the “self-splicing fitness (ln)” value (37 °C)?
The value was -0.784 ± 0.12.

What does the source list for UCCUAGCAAUAUUACGCCCA?
self-splicing fitness (ln) (30 °C): -1.65 ± 0.34; self-splicing fitness (ln) (37 °C): -0.0863 ± 0.31

Which results are given for UCCUAGCAAUAUUACGCUAA?
self-splicing fitness (ln) (30 °C): -2.98 ± 0.31; self-splicing fitness (ln) (37 °C): -3.02 ± 0.29

With UCCUAGCAAUAUUACGGAAG as the sequence, how does the “self-splicing fitness (ln)” value (30 °C) read?
The value was -3.41 ± 0.28.

And the “self-splicing fitness (ln)” value (37 °C)?
Its value is -1.23 ± 0.43.

With UCCUAGCAAUAUUACGGCGU as the sequence, how does the “self-splicing fitness (ln)” value (30 °C) read?
The value was -0.736 ± 0.087.

And the “self-splicing fitness (ln)” value (37 °C)?
Its value is -0.557 ± 0.12.

With UCCUAGCAAUAUUACGGGUG as the sequence, how does the “self-splicing fitness (ln)” value (30 °C) read?
The value was -0.384 ± 0.07.

What about the “self-splicing fitness (ln)” value (37 °C) of the same sequence?
Its value is 0.124 ± 0.087.

What does the source list for UCCUAGCAAUAUUACGGUAG?
self-splicing fitness (ln) (30 °C): -3.32 ± 0.32; self-splicing fitness (ln) (37 °C): -2.28 ± 0.29

For UCCUAGCAAUAUUACGGUGA, which “self-splicing fitness (ln)” value (30 °C) is on record?
The value was -0.297 ± 0.053.

And the “self-splicing fitness (ln)” value (37 °C)?
Its value is 0.225 ± 0.067.
